Legend:
[1] = target: T1, human PTK7 on the surface of PTK7-expressing tumor cell lines (human, UniProt Q13308 31-1070); experiment: flow cytometry on MDA-MB-468 cells
T1 construct: whole, on cells
T1 sequence (looked up): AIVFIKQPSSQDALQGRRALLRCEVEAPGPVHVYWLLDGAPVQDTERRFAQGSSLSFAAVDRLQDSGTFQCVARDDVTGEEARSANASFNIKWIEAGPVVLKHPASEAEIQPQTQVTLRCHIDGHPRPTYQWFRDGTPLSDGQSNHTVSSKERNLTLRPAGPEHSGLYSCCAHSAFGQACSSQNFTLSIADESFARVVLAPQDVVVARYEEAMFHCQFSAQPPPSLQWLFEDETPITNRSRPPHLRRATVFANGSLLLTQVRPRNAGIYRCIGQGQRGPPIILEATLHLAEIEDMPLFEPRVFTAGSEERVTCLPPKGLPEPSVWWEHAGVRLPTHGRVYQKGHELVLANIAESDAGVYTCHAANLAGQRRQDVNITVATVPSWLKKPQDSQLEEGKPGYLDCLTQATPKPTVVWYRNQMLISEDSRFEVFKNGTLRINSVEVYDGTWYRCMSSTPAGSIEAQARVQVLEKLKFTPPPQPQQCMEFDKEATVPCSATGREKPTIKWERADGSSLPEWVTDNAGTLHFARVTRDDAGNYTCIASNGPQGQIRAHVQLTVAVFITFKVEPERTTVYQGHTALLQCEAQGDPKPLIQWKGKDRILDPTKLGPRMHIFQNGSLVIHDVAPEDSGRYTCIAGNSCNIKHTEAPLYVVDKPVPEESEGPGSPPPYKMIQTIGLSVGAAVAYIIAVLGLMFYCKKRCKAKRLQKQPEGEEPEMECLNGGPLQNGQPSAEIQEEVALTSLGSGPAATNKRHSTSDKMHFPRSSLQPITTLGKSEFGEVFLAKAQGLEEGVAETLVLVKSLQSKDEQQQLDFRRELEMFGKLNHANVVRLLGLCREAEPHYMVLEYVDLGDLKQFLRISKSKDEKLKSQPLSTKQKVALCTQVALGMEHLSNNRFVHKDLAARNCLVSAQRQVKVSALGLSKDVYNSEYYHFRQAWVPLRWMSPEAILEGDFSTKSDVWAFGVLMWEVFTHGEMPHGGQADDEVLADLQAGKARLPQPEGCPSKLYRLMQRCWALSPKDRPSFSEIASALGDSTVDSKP

[2] = target: T2, human PTK7 extra-cellular domain (ECD) linked to His tag (human, UniProt Q13308 31-704); experiment: ELISA screening of hybridoma supernatants on human PTK7-his
T2 construct: extracellular domain; also called hPTK7-his; human PTK7-his protein; not shown: His tag
T2 sequence (looked up): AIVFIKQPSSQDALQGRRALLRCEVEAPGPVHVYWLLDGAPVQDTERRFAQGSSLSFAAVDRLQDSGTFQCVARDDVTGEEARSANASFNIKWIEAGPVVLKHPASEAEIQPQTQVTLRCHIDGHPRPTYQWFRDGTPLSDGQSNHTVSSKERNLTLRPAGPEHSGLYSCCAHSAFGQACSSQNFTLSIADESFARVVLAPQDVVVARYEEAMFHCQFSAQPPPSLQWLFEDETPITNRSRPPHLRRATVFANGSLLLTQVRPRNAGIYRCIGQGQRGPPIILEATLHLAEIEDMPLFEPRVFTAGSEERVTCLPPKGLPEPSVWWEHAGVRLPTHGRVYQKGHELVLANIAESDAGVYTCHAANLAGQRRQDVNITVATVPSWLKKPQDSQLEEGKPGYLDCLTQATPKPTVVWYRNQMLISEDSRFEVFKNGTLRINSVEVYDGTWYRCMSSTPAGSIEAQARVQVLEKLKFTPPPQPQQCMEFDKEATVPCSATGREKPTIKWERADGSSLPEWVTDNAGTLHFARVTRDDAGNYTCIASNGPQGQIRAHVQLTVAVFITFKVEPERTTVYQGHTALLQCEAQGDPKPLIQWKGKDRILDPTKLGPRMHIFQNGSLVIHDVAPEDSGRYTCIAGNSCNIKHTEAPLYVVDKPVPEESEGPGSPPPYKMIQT
Procedure: The cells were resuspended with an appropriate amount of electroporation buffer to ensure the cell concentration of about 2×10⁷ cells/mL. The cell suspension was added to a 9 mL electroporation tank for fusion. After fusion, the cell suspension was transferred to 20 mL RPMI 1640 complete medium containing 20% FBS and then left at room temperature for 20 min. The fused cells were resuspended with RPMI 1640 medium containing 1×HAT, 1×BIOMYC3, and 20% FBS. The cell suspension was added to several 96-well cell culture plates at 100 ul/well to ensure that the cell volume per well was about 5×10⁴ cells/well, and the plates were placed in a 37° C. cell incubator. After 7 days, additional 100 μL of RPMI 1640 complete medium containing 20% FBS, 1×HAT, and 1×BIOMYC-3 was added to each well. After 10 days, the cell culture supernatants from hybridoma parent clones were collected and used for screening by binding to human and cynomolgus monkey PTK7-his protein by ELISA.

[3] = target: T1, human PTK7 on the surface of …; experiment: cell-based or functional assay

B1: murine antibody m13C4 (antibody, V domains shown)
VH: EVKLVESGGGLVKPGGSLKLSCAASGFAFSTYDMFWFRQTPEKRLEWVATISSGGGYTYYPGSVKGRFTISRDNARNTLYLQMSSLRSEDTALYYCVRPLLRDSYFYFDVWGAGTTVTVSS
VL: DIVMTQSPAIMSTSPGEKVTMTCRASSSVSSSYLHWYQQKSGASPKLWIFRTSNLASGVPARFSGSGSGTSYSLTISSVEAEDAATYYCQQYSGYPLTFGAGTKLELK
notes: Mouse hybridoma clone, tested as culture supernatant
- binding result [1]: binds
- binding result [2]: binds

B2: murine antibody m2C5 (antibody, V domains shown)
VH: EVQLLSSGPELVTPGASVKISCKASGYTFTDYYINWLKQSHGKSLEWIGDINPNSGGPVYNQKFMAKATLTVDKTSNTAYMELRSLTSEDSAVYYCARGDYYGSNYNYWGQGTTLTVSS
VL: DILLTQSPAILSVSPGERVSFSCRASQNIGTSIHWYQQRTNGSPRLLIKFASESISGIPSRFSGSGSGTDFALTINSVESEDIADYYCQQSNNWPYTFGGGTKLEIK
notes: as for B1
- binding result [1]: binds
- binding result [2]: binds

B3: murine antibody m2C8 (antibody, V domains shown)
VH: QIQLVQSGPELKKPGETVKISCKASGYTFTTYGMSWVKQAPGKGLKWMGWINTHSGVPTYVDEFKGRSAFSLETSASTAYLQINNLKNEDTATYFCARSPFDYGSRGAWFVYWGQGTLVTVSS
VL: DVLMTQTPLSLPVSLGDQASISCRSSQSIVHNNGDTYLEWYLQKPGQSPKLLIYKVSNRFPGVPDRFSGSGSGTDFTLKISRVEAEDLGLYYCFQGSHVPWTFGGGTKLEIK
notes: as for B1
- binding result [1]: binds
- binding result [2]: binds

B4: PRO1107 (2C8-LD343 (8)) (other)
VH: QIQLVQSGAEVKKPGASVKVSCKASGYTFTTYGMSWVRQAPGQGLEWMGWINTHSGVPTYVDEFKGRVTMTLDTSTSTAYMELSSLRSEDTAVYYCARSPFDYGSRGAWFVYWGQGTTVTVSS
VL: DVVMTQSPDSLAVSLGERATINCRSSQSIVHNSGDTYLEWYQQKPGQPPKLLIYKVSNRFPGVPDRFSGSGSGTDFTLTISSLQAEDLAVYYCFQGSHVPWTFGGGTKVEIK
modifications: drug-linker LD343 (MMAE payload) coupled to cysteines of the TCEP-reduced antibody; DAR 7.5 by LC-MS; the chain carrying each drug is not stated
- IC50 of in vitro cytotoxicity (Cell-titre Glo, 96 h), Detroit 562 cells [3]: 8.2 nM
- IC50 of in vitro cytotoxicity (Cell-titre Glo, 96 h), MDA-MB-468 cells [3]: 0.00014 nM
- IC50 of in vitro cytotoxicity (Cell-titre Glo, 96 h), OVCAR-3 cells [3]: 0.0011 nM
- IC50 of in vitro cytotoxicity (Cell-titre Glo, 96 h), PA-1 cells [3]: 0.008 nM
- IC50 of in vitro cytotoxicity (Cell-titre Glo, 96 h), SNG-M cells [3]: 0.02 nM
- IC50 of in vitro cytotoxicity (Cell-titre Glo, 96 h), SW780 cells [3]: 27.4 nM

From US20250115680A1 (PROFOUNDBIO US, published 2025)
